One molecule from patent US20150315289A1 (published 2015) can be followed below.

This assay addresses MUC1 (human, UniProt P15941 24-1255, limits assumed). Put plainly: immunofluorescence co-localisation on human carcinoma cell lines; MUC5AC siRNA knockdown.

B1: humanized PAM4 (hPAM4) IgG (antibody, V domains shown)
VH: QVQLQQSGAEVKKPGASVKVSCEASGYTFPSYVLHWVKQAPGQGLEWIGYINPYNDGTQYNEKFKGKATLTRDTSINTAYMELSRLRSDDTAVYYCARGFGGSYGFAYWGQGTLVTVSS
VL: DIQLTQSPSSLSASVGDRVTMTCSASSSVSSSYLYWYQQKPGKAPKLWIYSTSNLASGVPARFSGSGSGTDFTLTISSLQPEDSASYFCHQWNRYPYTFGGGTRLEIKR
notes: humanized IgG1 kappa; used HRP-conjugated in some ELISAs and blots; also called clivatuzumab; HRP-hPAM4
Regarding B1, the binding result is recorded as “no binding”.
